Measurements published in patent US20090074780A1 (ESBATECH AN ALCON BIOMEDICAL RESEARCH UNIT, published 2009).
Each block holds one molecule with its values, some of them ahead of it.

What was measured:
[1] = molecular target: antigen of ESBA105 (not named in the examples) (UniProt P01375); assay: assay not described
[2] = molecular target: T1, antigen of ESBA105 (not named in the examples) (UniProt P01375 77-233, limits assumed); assay: assay not described
[3] = molecular target: T1, antigen of ESBA105 (not named in the …); assay: assay not described; reference itself

Chain of antigen of ESBA105 (not named in the examples) (UniProt P01375) (P01375 77-233 limits assumed): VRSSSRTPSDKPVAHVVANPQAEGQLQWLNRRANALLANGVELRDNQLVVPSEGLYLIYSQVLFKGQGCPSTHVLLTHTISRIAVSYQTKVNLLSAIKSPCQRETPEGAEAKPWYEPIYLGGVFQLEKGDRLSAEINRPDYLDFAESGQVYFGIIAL
T1 sequence (P01375 77-233 limits assumed): as above

Molecule: ESBA105_VL V3Q (scFv)
- Binding Activity (relative to parental ESBA105) (relative to parental ESBA105) [1]: 1.2

B1: ESBA105_QC15.2 (scFv, V domains shown)
VH: QVQLVQSGAEVKKPGASVKVSCTASGYTFTHYGMNWVRQAPGRGLEWMGWINTYTGEPTYADKFKDRITFSLETSASTVYMELTSLTSDDTAVYYCARERGDAMDYWGQGTLVTVSS
VL: DIVMTQSPSSLSASVGDRVTLTCTASQSVSNDVVWYQQRPGKAPKLLIYSAFNRYTGVPSRFSGRGYGTDFTLTISSLQPEDVAVYYCQQDYNSPRTFGQGTKLEVK
- Binding Activity (relative to parental ESBA105) [2]: 1 relative to parental ESBA105

Other lines, results leading:

- Activity relative to ESBA105 (relative to ESBA105) [1]: 1.2
Molecule: ESBA105 VH V103T (scFv)

- Activity relative to ESBA105 [3]: 1 relative to ESBA105
B2: ESBA105 (scFv)
chain: MADIVMTQSPSSLSASVGDRVTLTCTASQSVSNDVVWYQQRPGKAPKLLIYSAFNRYTGVPSRFSGRGYGTDFTLTISSLQPEDVAVYYCQQDYNSPRTFGQGTKLEVKRGGGGSGGGGSGGGGSSGGGSQVQLVQSGAEVKKPGASVKVSCTASGYTFTHYGMNWVRQAPGKGLEWMGWINTYTGEPTYADKFKDRFTFSLETSASTVYMELTSLTSDDTAVYYCARERGDAMDYWGQGTLVTVSS
